B1: CpfC (coproporphyrin ferrochelatase) (Corynebacterium glutamicum ATCC 13032) (protein)
chain: MNERTSDAFDALLVLSFGGPEGHEEVRPFLENVTHGRGIPPERLDEVAVHYHHFGGISPINALNREIIANVEKELASRDHKLPVYFGNRNWKPFDNEAAEQMADDGVKNALVLATSAWGGYSGCRQYQEDIQGMIKHLESQGQSITFTKLRQFYDHPRFVSTMAQLVQDSYAKLPDELRDEARLVFTAHSIPLTADNAAGTPEDGSLYSTQVKEASALIAEAVGVSDFDVVWQSRSGSPHTPWLEPDIVDHAVELNEKGQKALVVCPVGFISDHMEVIWDLDSELMEEAEKRNMVVERVATVGPTDEFAALVVDLIEEAELKRVIERLGKLPARGSSVNGAPCGDGCCGTAKHKTARVNPNARSAAPAAN
notes: heterologously expressed in E. coli BL21, purified
B2: CpfC (coproporphyrin ferrochelatase) (Corynebacterium glutamicum ATCC 13032; E31V) (protein)
chain: MNERTSDAFDALLVLSFGGPEGHEEVRPFLVNVTHGRGIPPERLDEVAVHYHHFGGISPINALNREIIANVEKELASRDHKLPVYFGNRNWKPFDNEAAEQMADDGVKNALVLATSAWGGYSGCRQYQEDIQGMIKHLESQGQSITFTKLRQFYDHPRFVSTMAQLVQDSYAKLPDELRDEARLVFTAHSIPLTADNAAGTPEDGSLYSTQVKEASALIAEAVGVSDFDVVWQSRSGSPHTPWLEPDIVDHAVELNEKGQKALVVCPVGFISDHMEVIWDLDSELMEEAEKRNMVVERVATVGPTDEFAALVVDLIEEAELKRVIERLGKLPARGSSVNGAPCGDGCCGTAKHKTARVNPNARSAAPAAN
notes: as for B1
B3: CpfC (coproporphyrin ferrochelatase) (Corynebacterium glutamicum ATCC 13032; T194S) (protein)
chain: MNERTSDAFDALLVLSFGGPEGHEEVRPFLENVTHGRGIPPERLDEVAVHYHHFGGISPINALNREIIANVEKELASRDHKLPVYFGNRNWKPFDNEAAEQMADDGVKNALVLATSAWGGYSGCRQYQEDIQGMIKHLESQGQSITFTKLRQFYDHPRFVSTMAQLVQDSYAKLPDELRDEARLVFTAHSIPLSADNAAGTPEDGSLYSTQVKEASALIAEAVGVSDFDVVWQSRSGSPHTPWLEPDIVDHAVELNEKGQKALVVCPVGFISDHMEVIWDLDSELMEEAEKRNMVVERVATVGPTDEFAALVVDLIEEAELKRVIERLGKLPARGSSVNGAPCGDGCCGTAKHKTARVNPNARSAAPAAN
notes: as for B1
B4: CpfC (coproporphyrin ferrochelatase) (Corynebacterium glutamicum ATCC 13032; E100D) (protein)
chain: MNERTSDAFDALLVLSFGGPEGHEEVRPFLENVTHGRGIPPERLDEVAVHYHHFGGISPINALNREIIANVEKELASRDHKLPVYFGNRNWKPFDNEAADQMADDGVKNALVLATSAWGGYSGCRQYQEDIQGMIKHLESQGQSITFTKLRQFYDHPRFVSTMAQLVQDSYAKLPDELRDEARLVFTAHSIPLTADNAAGTPEDGSLYSTQVKEASALIAEAVGVSDFDVVWQSRSGSPHTPWLEPDIVDHAVELNEKGQKALVVCPVGFISDHMEVIWDLDSELMEEAEKRNMVVERVATVGPTDEFAALVVDLIEEAELKRVIERLGKLPARGSSVNGAPCGDGCCGTAKHKTARVNPNARSAAPAAN
notes: as for B1
B5: CpfC (coproporphyrin ferrochelatase) (Corynebacterium glutamicum ATCC 13032; E100D/E31V) (protein)
chain: MNERTSDAFDALLVLSFGGPEGHEEVRPFLVNVTHGRGIPPERLDEVAVHYHHFGGISPINALNREIIANVEKELASRDHKLPVYFGNRNWKPFDNEAADQMADDGVKNALVLATSAWGGYSGCRQYQEDIQGMIKHLESQGQSITFTKLRQFYDHPRFVSTMAQLVQDSYAKLPDELRDEARLVFTAHSIPLTADNAAGTPEDGSLYSTQVKEASALIAEAVGVSDFDVVWQSRSGSPHTPWLEPDIVDHAVELNEKGQKALVVCPVGFISDHMEVIWDLDSELMEEAEKRNMVVERVATVGPTDEFAALVVDLIEEAELKRVIERLGKLPARGSSVNGAPCGDGCCGTAKHKTARVNPNARSAAPAAN
notes: as for B1
B6: CpfC (coproporphyrin ferrochelatase) (Corynebacterium glutamicum ATCC 13032; E181G) (protein)
chain: MNERTSDAFDALLVLSFGGPEGHEEVRPFLENVTHGRGIPPERLDEVAVHYHHFGGISPINALNREIIANVEKELASRDHKLPVYFGNRNWKPFDNEAAEQMADDGVKNALVLATSAWGGYSGCRQYQEDIQGMIKHLESQGQSITFTKLRQFYDHPRFVSTMAQLVQDSYAKLPDELRDGARLVFTAHSIPLTADNAAGTPEDGSLYSTQVKEASALIAEAVGVSDFDVVWQSRSGSPHTPWLEPDIVDHAVELNEKGQKALVVCPVGFISDHMEVIWDLDSELMEEAEKRNMVVERVATVGPTDEFAALVVDLIEEAELKRVIERLGKLPARGSSVNGAPCGDGCCGTAKHKTARVNPNARSAAPAAN
notes: as for B1

These proteins were tested on CC1=C(CCC(=O)O)c2cc3nc(cc4[nH]c(cc5[nH]c(cc1n2)c(C)c5CCC(=O)O)c(CCC(=O)O)c4C)C(CCC(=O)O)=C3C (assay: purified protein). Conditions: ferrous ammonium sulfate 100 uM, Tris-HCl pH 8.0, 3.3% Tween 20, 5 mM glutathione, 30 °C.
Format: biochemical, Corynebacterium glutamicum
B1 was tested, and the Km was 15.17 ± 1.84 × 10^-3 mM, the kcat was 0.26 ± 0.09 s⁻¹ and the kcat/Km was 17430 ± 110 M⁻¹ s⁻¹.
For B2, the Km was 8.26 ± 0.52 × 10^-3 mM, the kcat was 0.43 ± 0.01 s⁻¹ and the kcat/Km was 52900 ± 1400 M⁻¹ s⁻¹.
For B3, the Km was 11.63 ± 1.50 × 10^-3 mM, the kcat was 0.32 ± 0.06 s⁻¹ and the kcat/Km was 27300 ± 4880 M⁻¹ s⁻¹.
B4 was tested, and the Km was 9.40 ± 1.50 × 10^-3 mM, the kcat was 0.36 ± 0.06 s⁻¹ and the kcat/Km was 38100 ± 650 M⁻¹ s⁻¹.
B5 was tested, and the Km was 9.78 ± 0.82 × 10^-3 mM, the kcat was 0.36 ± 0.04 s⁻¹ and the kcat/Km was 37000 ± 4520 M⁻¹ s⁻¹.
In the case of B6, the Km is reported as 10.04 ± 1.52 × 10^-3 mM, the kcat is reported as 0.3 ± 0.04 s⁻¹ and the kcat/Km is reported as 30600 ± 4310 M⁻¹ s⁻¹.

— publication PMC10465345, “Development of a growth-coupled selection platform for directed evolution of heme biosynthetic enzymes in Corynebacterium glutamicum” (Frontiers in Bioengineering and Biotechnology, 2023)
